T1: mouse PD-1 (mouse, UniProt Q02242 25-169, limits assumed)
T1 sequence (looked up): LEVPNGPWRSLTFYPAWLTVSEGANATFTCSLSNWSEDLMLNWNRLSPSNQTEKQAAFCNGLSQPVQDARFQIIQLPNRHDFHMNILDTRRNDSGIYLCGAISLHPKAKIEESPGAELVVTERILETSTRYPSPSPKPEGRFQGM

T2: human ICOS (human, UniProt Q9Y6W8 21-140, limits assumed)
T2 sequence (looked up): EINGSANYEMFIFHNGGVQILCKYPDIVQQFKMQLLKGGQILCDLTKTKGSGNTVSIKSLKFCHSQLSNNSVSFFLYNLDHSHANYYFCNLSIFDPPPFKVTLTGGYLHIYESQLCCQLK

T3: human CTLA4 (human, UniProt P16410 36-161, limits assumed)
T3 sequence (looked up): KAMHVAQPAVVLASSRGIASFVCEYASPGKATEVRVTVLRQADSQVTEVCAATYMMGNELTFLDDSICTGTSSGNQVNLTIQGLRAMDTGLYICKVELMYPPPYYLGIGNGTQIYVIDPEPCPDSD


Tests used:
[1] = molecular target: T4, human PD-1 extracellular domain fused with mouse Fc (PD-1-mFc) (human, UniProt Q15116 25-170); assay: blockage ELISA, competitor PDL-1-mFc-biotin (summary table; IC50 in ng/ml in Table 2)
T4 construct: extracellular domain; not used because of the label; also called hPD-1-mFc; human PD-1-mouse Fc fusion protein
T4 sequence (Q15116 25-170): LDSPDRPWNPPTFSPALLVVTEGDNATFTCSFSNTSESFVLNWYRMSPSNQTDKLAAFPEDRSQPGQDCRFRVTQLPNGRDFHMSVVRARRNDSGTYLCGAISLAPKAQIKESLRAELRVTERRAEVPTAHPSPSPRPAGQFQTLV
Experimental: (§1) PD-1-mFc antigen (CrownBio) was suspended in PBS (Hyclone,Cat No:SH30256.01B) buffer (2 ug/ml, 100 ul/ well) and coated on the 96 well plate (costar, Cat No.:9018) 4° C. overnight. Plates were washed 3 times using washing buffer: PBS+0.05% Tween 20(Sigma, Cat No.:P1379). 200 ul of blocking buffer (PBS+1%BSA(Roche, Cat No.:738328)), was added to each well, incubated at 37° C. for 1 hour, and washed 3 times. Various concentrations (suitable dilutions of hybridoma supernatant in PBS) of the anti-PD-1 Abs were added to the wells (100 μl/well) and incubated at 37° C. for 1 hour. […] Secondary antibody (Avidin HRP eBioscience cat No.:E07418-1632, 1:500, 100 ul/well) was added, incubated at 37 ° C. for 0.5 hour, and washed 3 times. TMB (Sigma, Cat No.: T0440, 100 ul/well) was added, and incubated for 3 min at RT. To stop the reaction, 2N H2SO4 (100 ul/well), was added. The colorimetric signals were developed and read at 450 nm using a Auto Plate SpectraMax Plus (Supplier: Molecular Devices; Model: MNR0643; Software: SoftMax Pro v5.4).

[2] = molecular target: T4, human PD-1 extracellular domain fused …; assay: blockage ELISA, coated PD-1-mFc, competitor PDL-1-mFc-biotin
Experimental: as §1
(§2) The purified hybridoma antibodies were characterized further based on ELISA and FACS analyses.

[3] = molecular target: T5, human PD-1 (construct not stated) (human, UniProt Q15116 25-167, limits assumed); assay: Biacore, antibody captured, PD-1 analyte
T5 construct: also called PD-1 analyte
T5 sequence (Q15116 25-167 limits assumed): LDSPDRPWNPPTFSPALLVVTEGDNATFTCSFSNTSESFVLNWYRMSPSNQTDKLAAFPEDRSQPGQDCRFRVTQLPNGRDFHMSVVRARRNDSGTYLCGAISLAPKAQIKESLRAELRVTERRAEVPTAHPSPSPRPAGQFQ
Experimental: (§3) To further characterize the binding characteristics of the antibodies, 10 hybridoma antibodies were profiled using Biacore (Biacore 3000, GE) to elucidate binding kinetics and calculate equilibrium binding constants. This assay was performed by capture method, using the mouse antibody capture kit (BR-1008-38, GE). After diluting anti-mouse Fc mab to 25 μg/ml in pH 5.0 immobilization buffer, immobilization was conducted with the parameters shown in Table 6 at a flow rate of 5 μl/min. The kinetic runs were done by 1) injecting ligand for typical 0.5-1 min at flow rate of 10 μl/min.; 2) injecting analytes of choice for typical 3 min followed by dissociation in running buffer (1× PBS-P20) for typical 5-10 min at flow rate of 30 μl/min.; and 3) injecting regeneration solution 10 mM Glycine pH1.7 for typical 1-2 min at flow rate of 10 μl/min.

mouse PD-1 = molecular target: T1, mouse PD-1; assay: assays not detailed
human ICOS = molecular target: T2, human ICOS; assay: Interaction with CTLA4, ICOS CD28; assay not detailed
human CD28 = human CD28 (human, UniProt P10747 19-152, limits assumed); assay: as above
Chain of human CD28 (P10747 19-152 limits assumed): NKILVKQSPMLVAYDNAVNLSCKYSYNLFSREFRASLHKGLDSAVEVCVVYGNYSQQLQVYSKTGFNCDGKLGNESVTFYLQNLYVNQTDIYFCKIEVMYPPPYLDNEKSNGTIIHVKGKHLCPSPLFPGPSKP

human CTLA4 = molecular target: T3, human CTLA4; assay: as above
[4] = molecular target: T6, human PD-1 extracellular domain fused with human Fc tag (hPD-1-hFc) (human); assay: ELISA binding (summary table)
T6 construct: also called human PD-1-hFc
T6 sequence (chain, as listed by the source limits assumed): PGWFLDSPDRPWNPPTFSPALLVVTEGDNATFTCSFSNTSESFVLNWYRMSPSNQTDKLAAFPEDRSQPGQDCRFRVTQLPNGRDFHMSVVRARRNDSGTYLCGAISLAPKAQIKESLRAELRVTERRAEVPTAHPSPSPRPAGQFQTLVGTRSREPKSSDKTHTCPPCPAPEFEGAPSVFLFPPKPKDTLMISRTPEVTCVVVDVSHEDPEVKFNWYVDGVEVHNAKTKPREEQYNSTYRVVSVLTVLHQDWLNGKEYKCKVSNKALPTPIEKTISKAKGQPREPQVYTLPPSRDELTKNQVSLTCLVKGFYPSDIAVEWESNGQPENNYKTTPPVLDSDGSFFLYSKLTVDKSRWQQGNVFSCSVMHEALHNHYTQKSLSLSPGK
Experimental: (§4) ELISA binding analysis was conducted based on human PD-1-hFc Protein. 96-well plates (Costar, Cat No:9018) were coated with 100 μL of 2 μg/ml PD1-hFc (CrownBio) in coating buffer (PBS, Hyclone, Cat No:SH30256.01B) overnight at 4° C. The wells were aspirated and non-specific binding sites were blocked by adding 200 μL of blocking buffer with 1% (w/v) of bovine serum albumin (BSA, Roche, Cat No: 738328) and incubating for 1 hour at 37° C. After the plates are washed three times with wash buffer (PBS with 0.05%(v/v) Tween20 (Sigma, Cat No:P1379), 100 μL/well of a suitable dilutions of hybridoma supernatant in blocking buffer were added and incubated at room temperature for 1 hour. The plates were washed and incubated with 100 μL/well of Goat anti-Mouse IgG (H+L) (Thermo, Cat No: 31432) in blocking buffer for 60 min. After the plates were washed, 100 μL/well of substrate solution (TMB(eBioscience, Cat No:00-4201-56) was added and the plates were incubated for 2min at room temperature. 100 μL/well of stop solution (2N H2SO4) was added to stop the reaction. The colorimetric signals were developed and read at 450 nm using a Auto Plate SpectraMax Plus (Supplier: Molecular Devices; Model: MNR0643; Software: SoftMax Pro v5.4).
as §2

[5] = molecular target: T7, human PD-1 on cells (293T cells transfected with human PD-1) (human, UniProt Q15116 25-288); assay: FACS blockage on hPD-1-293T cells, competitor biotin PD-L1
T7 construct: whole, on cells; Also used as the target for the functional rows, where PD-1 stands on human T cells
T7 sequence (Q15116 25-288): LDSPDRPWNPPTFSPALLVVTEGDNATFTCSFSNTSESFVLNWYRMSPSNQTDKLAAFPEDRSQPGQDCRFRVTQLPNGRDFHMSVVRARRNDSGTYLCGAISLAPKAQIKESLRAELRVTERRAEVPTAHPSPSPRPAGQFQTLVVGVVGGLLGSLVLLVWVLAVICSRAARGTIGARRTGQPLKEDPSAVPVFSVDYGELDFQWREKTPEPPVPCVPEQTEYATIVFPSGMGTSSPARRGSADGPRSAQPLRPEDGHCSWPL
Experimental: (§5) Various concentrations of the testing hybridoma antibodies were added to the cell suspension and incubated at 4° C. for 60 minutes in 96 well plates. […] Plates were washed 3 times, and mouse anti-biotin PE antibody (Biolgend, cat# 409004) was added. Flow cytometric analyses were performed using a FACS Array.
as §2

[6] = molecular target: T6, human PD-1 extracellular domain fused …; assay: ELISA on coated PD1-hFc
Experimental: as §4, §2

[7] = molecular target: T7, human PD-1 on cells (293T cells …); assay: FACS on hPD-1-293T cells
Experimental: The cells were incubated with the indicated antibody (20 ug/ml with the dilution of ⅕) at 4° C. for 1 h. Cells were washed three times with FACS buffer. A secondary antibody (PE Goat anti-mouse: 1:200; PE mouse anti-human: 1:10) was added to the cells at 100 ul/well, and incubated at 4° C. for 40min. Cells were washed three times with FACS buffer and analyzed by FACS Array.
as §2

[8] = molecular target: T7, human PD-1 on cells (293T cells …); assay: FACS blockage on hPD-1-293T cells, competitor biotin PD-L2
Experimental: as §5, §2

[9] = molecular target: T5, human PD-1 (construct not stated); assay: Biacore (summary table; unit from Table 7)
Experimental: as §3

| Binder | IC50 [1] [µg/mL] | IC50 [2] [µg/mL] | Ka [3] [M⁻¹] | Kd [3] [pM] | koff [3] [s⁻¹] | kon [3] [M⁻¹ s⁻¹] | binding result (mouse PD-1) | binding result (human ICOS) | binding result (human CD28) | binding result (human CTLA4) | EC50 [4] [µg/mL] | IC50 [5] [µg/mL] | EC50 [6] [µg/mL] | EC50 [7] [µg/mL] | IC50 [8] [µg/mL] | Kd [9] [pM] |
| --- | --- | --- | --- | --- | --- | --- | --- | --- | --- | --- | --- | --- | --- | --- | --- | --- |
| 7A4 murine anti-PD-1 antibody (antibody, V domains shown, Purified hybridoma antibody; also called 7A4-mIgG1) VH: QIHLVQSGPELKKPGETVKISCKASGYTFTNFGMNWVKQAPGKGLKWMGWISGYTREPTYAADFKGRFAISLETSASTAYLQINDLKNEDMATYFCARDVFDYWGQGTTLTVSS VL: DIVLTQSPASLAVSLGQRATISCRASESVDNYGYSFMNWFQQKPGQPPKLLIYRASNLESGIPARFSGSGSRTNFTLTINPVEADDVATYFCQQSNADPTFGGGTNLEIKR | 0.699 | 0.699 | 4.06e+10 | 24.6 | 4.82e-05 | 1.96e+06 | no binding | no binding | no binding | no binding | 0.00932 | 0.0289 | 0.00932 | 0.0389 | 0.00445 |  |
| 15H5 murine anti-PD-1 antibody (antibody, V domains shown, Purified hybridoma antibody; also called 15H5-mIgG1) VH: EVKLVESGGGLVKPGGSLKLSCAASGFAFRSYDMSWVRQTPEKILEWVATISGGGSYTYYQDSVKGRFTISRDNARNTLYLQMSSLRSEDTALYYCASPYGPYFDYWGQGTTLTVSS VL: DIQMNQSPSSLSASLGDTITITCHASQSINVWLSWYQQKPGNIPKLLIYRASNLHTGVPSRFSGSGSGTGFTLTISSLQPDDIATYYCQQGQSYPWTFGGGTKLEIKR | 0.873 | 0.873 | 5.44e+10 | 18.4 | 3.67e-05 | 2e+06 | no binding | no binding | no binding | no binding | 0.0134 | 0.0356 | 0.0134 | 0.0454 | 0.063 | 18.4 |
| 6E1 murine anti-PD-1 antibody (antibody, V domains shown, Purified hybridoma antibody; also called 6E1-mIgG1) VH: EVKLVESGGGLVKPGGSLKLSCAASGFTFSSYGMSWVRQTPEKRLEWVATISGGGRDTYYLDSVKGRFTISRDNAKNNLYLQMSSLRSEDTALYYCVRQYYDDWFAYWGQGTLVSNSA VL: DIVLTQTPATLSVTPGDSVSLSCRASQSLSNNLHWYQQKSHESPRLLIKYASQSISGIPSRFSGSGSGTDFTLSINSVETEDFGMYFCQQSNSWPLTFGAGTKLEMKR | 0.961 | 0.961 | 3.92e+10 | 25.5 | 2.83e-05 | 1.11e+06 | no binding | no binding | no binding | no binding | 0.0157 | 0.0268 | 0.0157 | 0.0491 | 0.114 | 25.5 |
| 22A5 murine anti-PD-1 antibody (antibody, V domains shown, Purified hybridoma antibody; also called 22A5-mIgG1) VH: EVKLVESGGGLVKPGGSLKLSCSASGFSFSYYDMSWVRQTPEKGLEWVATISGGGRNTYFIDSVKGRFTISRDNVKNNLYLLMSSLRSEDTALYYCASPYEGAVDFWGQGTSVTVSS VL: DIVMTQSHKVMSTSVGDRVSITCKASQDVDNAVAWYQQNPGQSPKLLIKWASTRHHGVPDRFTGSGSGTDFTLTISTVQSEDLADFFCQQYSTFPYTFGGGTKLEIKR | 1.11 | 1.11 | 5.17e+10 | 19.3 | 2.88e-05 | 1.49e+06 | no binding | no binding | no binding | no binding | 0.0194 | 0.0562 | 0.0194 | 0.0775 | 0.21 | 19.3 |
| 13F1 murine anti-PD-1 antibody (antibody, V domains shown, Purified hybridoma antibody; also called 13F1-mIgG1) VH: DVQLQESGPGLVKPSQSLSLTCTVTGYSITSDYAWNWIRQFPGNQLEWMAYISYSGYTSYNPSLKSRISITRDTSKNQFFLQLNSVTTEDTATYYCARSLDYDYGTMDYWGQGTSVTVSS VL: QIVLSQSPAILSASPGEKVTMTCRANSSVSSMHWYQQKPGSSPEPWIYAISNLAFGVPTRFSGSGSGTSYSLTISRVEAEDAATYFCQQWSSRPPTFGGGTKLEIKR | 0.701 | 0.701 | 3.6e+10 | 27.8 | 3.92e-05 | 1.41e+06 | no binding | no binding | no binding | no binding | 0.0173 | 0.0199 | 0.0173 | 0.0308 | 0.0529 | 27.8 |

Reference: patent US20170267762A1 (APOLLOMICS, published 2017)
